In patent US20070292411A1 (Human Genome Sciences, published 2007):

B1: TR4-Fc fusion protein (Fc fusion)
chain: ATIKLHDQSIGTQQWEHSPLGELCPPGSHRSERPGACNRCTEGVGYTNASNNLFACLPCTACKSDEEERSPCTTTRNTACQCKPGTFRNDNSAEMCRKCSTGCPRGMVKVKDCTPWSDIECVHKESGNGHNI
notes: not shown: Fc region

How the values were obtained:
Biotinylated TRAIL [1] = biological target: T1, Biotinylated TRAIL (Homo sapiens (Human), UniProt P50591 114-281, limits assumed, biotinylated (sites not given)); experiment: competition ELISA, soluble TR4 (TR4-Fc positive control) competing with captured TR4-Fc for biotinylated TRAIL; assay 2
Procedure: (§1) Goat anti-human Fc was diluted to 0.1 micrograms/ml in coating buffer. The Immulon 4 microplate was coated with 100 microliters per well of the Goat anti-human Fc solution and incubated overnight at 4° C. The coating solution was decanted from the plate, and blocking solution was dispensed at 200 microliters per well. The plate was incubated at room temperature for 1 hour. After the 1 hour incubation period, the blocking solution was decanted from the plate and 1 microgram/mL of TR4-Fc was dispensed at 100 microliters/well and incubated for 2 hours at room temperature. After the incubation, the plate was washed five times manually using a Wheaton manifold.
(§2) Hybridoma supernatants were (previously) prepared in a low binding dilution plate using diluent. The supernatants were prepared in duplicate and were diluted from the stock concentration with 2.5 fold dilutions for the 7 subsequent wells. If a purified form of the antibody was available, the starting concentration was 5 micrograms/mL. The positive control (TR4-Fc) was diluted from 5 micrograms/mL. 100 microliters was transferred into the ELISA plate and pre-incubated for 30 minutes at room temperature. […]
(§3) After the one-hour incubation, the plate was decanted and washed with PBST five times and blotted. […] The plate was immediately read at 450 nm using the spectrometer from Molecular Devices.

Biotinylated TRAIL [2] = biological target: T1, Biotinylated TRAIL; experiment: competition ELISA, soluble TR4 (TR4-Fc positive control) competing with captured TR4-Fc for biotinylated TRAIL; assay 1
Procedure: as §1, §2, §3

TR4-Fc fusion protein [3] = biological target: B1; experiment: competition ELISA, inhibition of biotinylated TRAIL binding to captured TR4-Fc; assay 2
Procedure: as §1, §2, §3

TR4-Fc fusion protein [4] = biological target: B1; experiment: competition ELISA, inhibition of biotinylated TRAIL binding to captured TR4-Fc; assay 1
Procedure: as §1, §2, §3

T1 sequence (P50591 114-281 limits assumed): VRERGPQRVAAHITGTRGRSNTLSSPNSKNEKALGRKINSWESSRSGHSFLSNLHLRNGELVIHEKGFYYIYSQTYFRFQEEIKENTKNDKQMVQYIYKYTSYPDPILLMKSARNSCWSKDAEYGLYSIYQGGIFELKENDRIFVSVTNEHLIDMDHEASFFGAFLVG

Question: With B1 as the binder, how does the IC50 (Biotinylated TRAIL [1]) read?
Answer: 0.284 mg/L

Question: What about the IC50 (Biotinylated TRAIL [2]) of the same binder?
Answer: 0.491 mg/L

B2: monoclonal antibody 7.1.3 (antibody, V domains shown)
VH: QVQLVQSGAEVKKPGASVKVSCKASGYTFTNYDINWVRQAPGQGLEWMGISAYTGNTNYAQKLQGRVTMTTDTSTSTAYMELRSLRSDDTAVYYCVRDYHDSNGYYYFDYWGQGTLVTVS
VL: DIQMIQSPLSLPVIPGEPASMSCRSSRSLLHSNGNNYLEWYLQKPGQSPQLLIYLGSNRASGVPDRFSGSGSGTDFTLKISRVEAEDVGIYYCMQGLQLPWTFGGTKVIKR
Question: For B2, which IC50 (TR4-Fc fusion protein [3]) is on record?
Answer: 0.068 mg/L

Question: What about the IC50 (TR4-Fc fusion protein [4]) of the same binder?
Answer: 0.152 mg/L
